Assay results: US20230051715A1 (MABWELL THERAPEUTICS, published 2023)

What was measured:
[1] = molecular target: T1, human C1s deletion mutant 2 (NHC) (human, UniProt P09871 16-437); assay: ELISA, plate coated with 200 ng/well HuC1s(NHC), OD450nm
T1 construct: C-terminal 6xHis tag; also called HuC1s(NHC); huC1sNHC
T1 sequence: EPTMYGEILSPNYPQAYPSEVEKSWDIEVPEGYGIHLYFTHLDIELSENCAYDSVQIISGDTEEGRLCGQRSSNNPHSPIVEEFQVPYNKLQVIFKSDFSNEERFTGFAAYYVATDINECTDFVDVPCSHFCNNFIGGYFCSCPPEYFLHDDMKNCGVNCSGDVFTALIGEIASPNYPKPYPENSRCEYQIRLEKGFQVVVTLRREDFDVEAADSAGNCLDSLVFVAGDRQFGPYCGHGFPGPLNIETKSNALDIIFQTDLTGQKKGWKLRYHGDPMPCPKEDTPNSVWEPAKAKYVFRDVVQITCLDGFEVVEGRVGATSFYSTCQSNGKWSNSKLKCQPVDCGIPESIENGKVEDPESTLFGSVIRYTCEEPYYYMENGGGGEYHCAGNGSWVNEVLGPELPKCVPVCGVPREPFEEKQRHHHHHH
Procedure: (§1) ELISA was carried out by first coating 96-well plates with 200 ng/well of full-length or truncated C1s proteins overnight. The next morning, plates were blocked with SuperBlock T20 blocking buffer (Thermo Scientific 37536) for 1 h with gentle shaking. Then, various concentrations of anti-C1s antibodies diluted in SuperBlock T20 blocking buffer were added to the plates and incubated for 1 h with gentle shaking. Mouse IgG (Sigma-Aldrich 15381) and human IgG1 (BioXCell BP0297) were used as negative controls. The plates were washed before incubating with HRP conjugated secondary antibodies diluted in SuperBlock T20 blocking buffer (goat anti-mouse IgG (H+L) cross-adsorbed secondary antibody HRP (Invitrogen G-21040) or goat anti-human IgG antibody, HRP conjugate (Millipore AP309P)) for 1 h with gentle shaking. At last, the plates were washed and color developed with ELISA liquid HRP substrate (Sigma-Aldrich), followed by stopping the reaction with addition of 1M H₂SO₄ in the same volume as the ELISA liquid substrate. Bound antibody was measured by absorbance at OD₄₅₀ₙₘ.

[2] = molecular target: T2, full-length mouse C1s (produced in house) (mouse, UniProt Q8CG14 16-688); assay: ELISA, plate coated with 200 ng/well full-length MoC1s, OD450nm
T2 construct: Called full-length; also called MoC1s; moC1s
T2 sequence: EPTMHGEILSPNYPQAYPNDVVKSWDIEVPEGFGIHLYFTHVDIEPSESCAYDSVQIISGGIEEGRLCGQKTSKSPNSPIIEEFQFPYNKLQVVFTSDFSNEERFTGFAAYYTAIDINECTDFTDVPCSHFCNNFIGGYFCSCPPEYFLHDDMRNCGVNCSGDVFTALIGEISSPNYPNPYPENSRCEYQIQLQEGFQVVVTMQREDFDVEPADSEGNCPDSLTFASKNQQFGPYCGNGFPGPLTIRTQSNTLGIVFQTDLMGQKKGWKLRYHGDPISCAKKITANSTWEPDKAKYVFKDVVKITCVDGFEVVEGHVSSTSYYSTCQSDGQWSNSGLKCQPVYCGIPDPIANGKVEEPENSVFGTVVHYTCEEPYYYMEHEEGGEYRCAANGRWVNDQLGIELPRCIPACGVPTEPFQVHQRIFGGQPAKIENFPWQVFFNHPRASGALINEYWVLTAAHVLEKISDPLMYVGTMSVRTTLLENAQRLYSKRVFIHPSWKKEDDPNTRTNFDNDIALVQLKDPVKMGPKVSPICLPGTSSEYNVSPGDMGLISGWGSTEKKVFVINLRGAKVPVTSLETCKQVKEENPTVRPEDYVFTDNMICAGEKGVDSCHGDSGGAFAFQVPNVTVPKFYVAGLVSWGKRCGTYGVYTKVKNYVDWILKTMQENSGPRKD
Procedure: as §1

[3] = molecular target: T3, C1s in normal cynomolgus monkey serum (CMS, CompTech NCYS) (cynomolgus monkey, UniProt A0A2K5VQX9 16-685); assay: cell-based or functional assay
T3 sequence: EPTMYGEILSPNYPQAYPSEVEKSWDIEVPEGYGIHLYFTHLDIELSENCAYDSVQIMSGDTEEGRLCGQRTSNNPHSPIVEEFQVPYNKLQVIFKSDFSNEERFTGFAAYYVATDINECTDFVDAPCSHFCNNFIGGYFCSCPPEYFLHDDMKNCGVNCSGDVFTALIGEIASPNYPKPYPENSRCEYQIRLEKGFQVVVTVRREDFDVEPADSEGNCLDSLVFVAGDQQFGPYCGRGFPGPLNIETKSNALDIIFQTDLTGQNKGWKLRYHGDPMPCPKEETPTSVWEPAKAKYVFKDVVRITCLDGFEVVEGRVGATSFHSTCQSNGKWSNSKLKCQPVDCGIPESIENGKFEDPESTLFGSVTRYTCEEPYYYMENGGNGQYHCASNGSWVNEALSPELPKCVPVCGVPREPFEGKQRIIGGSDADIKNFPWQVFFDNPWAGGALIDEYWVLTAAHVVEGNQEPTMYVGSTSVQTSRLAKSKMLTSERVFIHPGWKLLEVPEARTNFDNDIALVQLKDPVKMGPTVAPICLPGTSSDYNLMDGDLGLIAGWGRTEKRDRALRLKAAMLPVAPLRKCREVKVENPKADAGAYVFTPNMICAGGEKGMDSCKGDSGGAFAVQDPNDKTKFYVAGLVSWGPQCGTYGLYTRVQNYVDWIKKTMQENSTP

[4] = molecular target: T4, C1s in normal human serum (NHS, CompTech NHS) (human, UniProt P09871 16-688); assay: cell-based or functional assay
T4 sequence (looked up): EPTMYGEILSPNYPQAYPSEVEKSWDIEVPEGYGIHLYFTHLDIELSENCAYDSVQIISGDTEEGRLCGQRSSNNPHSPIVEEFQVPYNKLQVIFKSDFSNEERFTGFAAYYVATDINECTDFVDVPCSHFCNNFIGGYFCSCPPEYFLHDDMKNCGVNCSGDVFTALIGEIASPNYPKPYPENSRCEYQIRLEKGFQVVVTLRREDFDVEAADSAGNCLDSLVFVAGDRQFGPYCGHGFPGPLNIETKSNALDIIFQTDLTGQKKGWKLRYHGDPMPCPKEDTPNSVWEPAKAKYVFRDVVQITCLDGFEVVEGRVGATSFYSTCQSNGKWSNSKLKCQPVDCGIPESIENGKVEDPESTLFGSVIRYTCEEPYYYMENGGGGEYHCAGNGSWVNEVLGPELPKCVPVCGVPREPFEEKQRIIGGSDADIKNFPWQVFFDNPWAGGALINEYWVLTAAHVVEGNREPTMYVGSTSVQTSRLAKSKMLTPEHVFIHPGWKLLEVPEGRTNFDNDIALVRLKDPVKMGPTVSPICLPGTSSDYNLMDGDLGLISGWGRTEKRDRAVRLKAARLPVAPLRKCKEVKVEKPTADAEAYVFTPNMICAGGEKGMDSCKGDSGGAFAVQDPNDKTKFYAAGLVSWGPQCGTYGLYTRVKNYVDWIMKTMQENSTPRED

[5] = molecular target: T5, full-length human C1s (produced in house) (human, UniProt P09871 16-688); assay: ELISA, plate coated with 200 ng/well full-length HuC1s, OD450nm
T5 construct: Called full-length; Partly auto-cleaved at R422-I423 on blots; also called HuC1s; Hu C1s
T5 sequence: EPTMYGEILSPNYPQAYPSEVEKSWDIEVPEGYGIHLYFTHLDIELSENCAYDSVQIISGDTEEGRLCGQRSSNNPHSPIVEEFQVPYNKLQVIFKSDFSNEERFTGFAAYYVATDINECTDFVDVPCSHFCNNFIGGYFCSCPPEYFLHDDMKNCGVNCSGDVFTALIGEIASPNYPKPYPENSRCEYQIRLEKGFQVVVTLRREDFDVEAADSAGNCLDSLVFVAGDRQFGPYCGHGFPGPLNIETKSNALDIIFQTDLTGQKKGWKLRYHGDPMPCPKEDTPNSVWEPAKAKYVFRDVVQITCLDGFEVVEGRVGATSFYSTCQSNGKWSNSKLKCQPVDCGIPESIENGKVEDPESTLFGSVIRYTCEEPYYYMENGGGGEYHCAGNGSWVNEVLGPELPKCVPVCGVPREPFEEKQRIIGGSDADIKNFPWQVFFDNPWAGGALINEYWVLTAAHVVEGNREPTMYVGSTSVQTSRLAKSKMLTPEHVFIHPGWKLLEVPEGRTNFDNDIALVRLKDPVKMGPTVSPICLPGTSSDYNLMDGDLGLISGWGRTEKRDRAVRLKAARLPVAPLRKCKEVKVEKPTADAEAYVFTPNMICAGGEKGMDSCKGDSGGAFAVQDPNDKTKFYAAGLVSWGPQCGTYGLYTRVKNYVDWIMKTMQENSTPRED
Procedure: as §1

[6] = molecular target: T6, human C1s deletion mutant 1 (M151) (human) (UniProt P09871); assay: ELISA, plate coated with 200 ng/well HuC1s(M151), OD450nm
T6 sequence: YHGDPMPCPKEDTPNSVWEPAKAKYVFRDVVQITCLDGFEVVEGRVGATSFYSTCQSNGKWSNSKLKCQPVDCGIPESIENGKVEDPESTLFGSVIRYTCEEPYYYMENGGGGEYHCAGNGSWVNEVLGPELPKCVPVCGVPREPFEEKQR

- EC50 [1]: 0.003 µg/mL
- binding result [2]: no binding (tested: 1000 ng/ml (Log 3))
- IC50, inhibition of IgM-induced C4 deposition from CMS [3]: 0.2 µg/mL
- IC50, inhibition of cynomolgus monkey complement-mediated lysis of EA [3]: 0.1 µg/mL
- IC50, inhibition of IgM-induced C4 deposition from NHS [4]: 0.2 µg/mL
- EC50 [5]: 0.002 µg/mL
- EC50 [6]: 0.003 µg/mL
B1: Anti-C1s antibody hz2-8(H1L2) (antibody, V domains shown)
VH: QVQLVQSGAEVKKPGASVKVSCKASGFNIKEYYMHWVRQAPEQGLEWMGWIDPENGDTIYAQKFQGRVTITADTSTNTAYMELSSLRSEDTAVYYCARSRLFFAYWGQGTLVTVSS
VL: DIQMTQSPKSLSASVGDRVTITCRASQDVRTALDWYQQKPGQSPKLLIYSASYRYSGVPSRFSGSGSGTDFTLTISSLQPEDFATYYCQQQYTTPYTFGQGTKLEIKR
notes: Humanized, human IgG1 / kappa
- IC50, inhibition of human complement-mediated lysis of antibody-sensitized sheep erythrocytes (EA) [4]: 0.2 µg/mL
